Where “and” joins values, the source holds several entries; their conditions need not be identical. Identical values can stand only once. Like-named read-outs stand apart in the source and are kept apart here.
What was measured:
neuronal cells (pc12) = assay: Neurite formation against MPP+ induced damage; format: cell-based, rat; conditions: NGF (200 ng/ml) + MPP (100 μM)
Description: Cells were counted using haemocytometer and plated in 24-well plates at the densities corresponding to 1×10^4 cells/well/500 μl of the growth medium. The cells were then incubated for 48 h in 5% CO2 incubator at 37° C. Effect of Recombinant Lectin having SEQ ID NO: 1 on neurite formation was evaluated in both basal and MPP+ damage induced model.
The percent protection in neurite formation against MPP+ induced damage was determined as follows:
[formula] • Where, • A=No of neurites in Cells treated with NGF+SEQ ID NO: 1+MPP+ • B=No of neurites in Cells treated with NGF+MPP+ • C=No of Neurites Cells treated with NGF alone

Swiss albino mice = assay: Passive avoidance test, scopolamine induced dementia; format: in vivo, Mus musculus (Swiss Albino)
Description: Required amount of recombinant lectin protein having SEQ ID NO: 1 was diluted in sterile Tris Buffered Saline (TBS) to achieve desired final concentration, i.e 0.1 mg/mL, 0.05 mg/mL, 0.025 mg/mL, at the doses of 0.5 mg/kg, 0.25 mg/kg and 0.125 mg/kg respectively. Formulation was prepared fresh daily.
TBS buffer and 0.5% CMC were used as a vehicle for preparation of test item, recombinant Lectin having SEQ ID NO: 1 and reference item formulation, respectively Male Mus musculus (Swiss Albino) aged between 8-10 weeks procured from GENTOX Bio services Pvt Ltd, Hyderabad. Animals were classified into 6 groups and acclimatized for two weeks. Animals were identified by cage labelling and tail marking and were randomized on the basis of their body weight.
(§1) Healthy male Swiss albino mice (n=48) were selected and randomized based on body weight (n=8 per Group) into 6 groups as mentioned in table no-1. The control group G1 was treated intravenously with vehicle daily till the experiment completion. Group G2 was considered as negative control and treated with vehicle. […] Group G4, G5 &G6 animals were treated with the test item recombinant lectin protein having SEQ ID NO: 1 at the dose of 0.5 mg/kg, 0.25 mg/kg and 0.125 mg/kg, respectively. All the test items were given intravenously (i.v) daily at the dose volume of 5 ml/kg for 14 Days. The body weight was recorded daily throughout the experimental period. […] One hour after the last dose of test items (on Day 14) all the animals were injected with scopolamine hydrobromide at the dose of 2.5 mg/kg, i.p., except the normal control group G1. Passive avoidance test was conducted 30 min after scopolamine injection.
This learning and memory test were performed in two chambers, which has square boxes, identical size, juxtaposed as illuminated and dark. A lamp was placed above one chamber for illumination. Each test involved two separate trials, a training trial and a test trial.
For the training trial, the mice were initially placed in the illuminated chamber. When the mice entered the dark chamber, an electrical shock (0.5 mA) for 3 sec. was delivered through stainless steel rods. The latency times once the mice entered from light compartment to the dark compartment was recorded using in-build timer. A test trial was performed 24 h following the training trial, and latency times to re-enter the dark chamber was measured up to 5 min

Acetylcholinesterase = conditions: mice; for brain Acetylcholine esterase Mean: scopolamine 2.5 mg/kg i.p.
Description: as §1
After passive avoidance test screening models of memory, the animals were sacrificed humanely. The whole brain was carefully removed from the skull and weighed. Brain was dissected into two portions
10% w/v brain homogenate (100 mg/mL) was prepared by homogenizing it in ice-chilled phosphate buffer. The homogenate was subsequently centrifuged using a refrigerated centrifuge at 3000 rpm for 10 min, and the supernatant was separated and used for the biochemical estimations.
Following biomarkers was estimated using ELISA kit as per manufacturer's instruction. • Brain NGF (Nerve Growth Factor), CUSABIO, Catalog No. CSB-E04684m • Acetylcholinesterase, CUSABIO, Catalog No. CSB-E17521m • TNF alpha, CUSABIO, Catalog No. CSB-E04741m

TNF alpha = assay: Brain biomarker ELISA, scopolamine induced dementia; format: in vivo, Mus musculus (Swiss Albino); conditions: scopolamine 2.5 mg/kg i.p., mice
[1] = test system: Cerebral Cortex and Hippocampus; assay: Brain histopathology (H&E), scopolamine induced dementia; format: in vivo, Mus musculus (Swiss Albino)
Description: Mouse brains were collected after humane sacrifice and fixed in 10% neutral buffered formalin. Then, the brain tissue was trimmed, processed and embedded in paraffin. 5 Micron sections were prepared in slide as a specimen for hematoxylin-eosin (H&E) staining. The hippocampal lesions were assessed microscopically at 100× magnification.
Detailed histological investigation was performed H&E stained brain tissues. Scoring was given according to the neuronal damage. […] The grading criteria for Histopathology score was: Normal or no injury—0; Rare neuronal injury (<5 clusters)—1; Occasional neuronal injury (5-15 clusters)—2; Frequent neuronal injury (>15 clusters)—3; Diffused neuronal injury-4.

[2] = G4: 0.5 mg/kg i.v. qdx14, score 0 normal to 4 diffused neuronal injury
[3] = G5: 0.25 mg/kg i.v. qdx14, score 0 normal to 4 diffused neuronal injury
[4] = G6: 0.125 mg/kg i.v. qdx14, score 0 normal to 4 diffused neuronal injury

B1: SEQ ID NO: 1: variant of the S. rolfsii lectin amino acid sequence (reported as Rec-2 in WO2010/095143) (protein)
chain: TYKITVRVYQTNPDAFFHPVEKTVWKYANGGTWTITDDQHVLTMGGSGTSGTLRFHADNGESFTATFGVHNYKRWCDIVTNLAADETGMVINQQYYSQKNREEARERQLSNYQVKNAKGRNFQIVYTEAEGNDLHANLIIG
Neuronal cells (pc12); 0.001 μg/ml
  % Protection in formation of Neurites (w.r.t. MPP+): 7.3%
  Average No. of Neurites: 21
Neuronal cells (pc12); 0.01 μg/ml
  % Protection in formation of Neurites (w.r.t. MPP+): 43.6%
  Average No. of Neurites: 28
Neuronal cells (pc12); 0.1 μg/ml
  % Protection in formation of Neurites (w.r.t. MPP+): 76.4%
  Average No. of Neurites: 34
Neuronal cells (pc12); 1 μg/ml
  % Protection in formation of Neurites (w.r.t. MPP+): 78.2%
  Average No. of Neurites: 34
Neuronal cells (pc12); 5 μg/ml
  % Protection in formation of Neurites (w.r.t. MPP+): 58.2%
  Average No. of Neurites: 30
Swiss albino mice; G4: 0.5 mg/kg i.v. qdx14, compared with G2 (scopolamine)
  % increase in Transfer Latency Time: 33.2%
Swiss albino mice; G4: 0.5 mg/kg i.v. qdx14, scopolamine 2.5 mg/kg i.p.
  Mean Transfer Latency Time: 85.26 s
Swiss albino mice; G4: 0.5 mg/kg i.v. qdx14, scopolamine 2.5 mg/kg i.p., listed as SEQ ID NO 1
  Mean Transfer Latency Time: 85.26 ± 6.52 s
Swiss albino mice; G5: 0.25 mg/kg i.v. qdx14, compared with G2 (scopolamine)
  % increase in Transfer Latency Time: 29.4%
Swiss albino mice; G5: 0.25 mg/kg i.v. qdx14, scopolamine 2.5 mg/kg i.p.
  Mean Transfer Latency Time: 80.58 s
Swiss albino mice; G5: 0.25 mg/kg i.v. qdx14, scopolamine 2.5 mg/kg i.p., listed as SEQ ID NO 1
  Mean Transfer Latency Time: 80.58 ± 9.08 s
Swiss albino mice; G6: 0.125 mg/kg i.v. qdx14, compared with G2 (scopolamine)
  % increase in Transfer Latency Time: 24.9%
Swiss albino mice; G6: 0.125 mg/kg i.v. qdx14, scopolamine 2.5 mg/kg i.p.
  Mean Transfer Latency Time: 75.81 s
Swiss albino mice; G6: 0.125 mg/kg i.v. qdx14, scopolamine 2.5 mg/kg i.p., listed as SEQ ID NO 1
  Mean Transfer Latency Time: 75.81 ± 7.75 s
Acetylcholinesterase; 0.5 mg/kg pretreatment
  effect on scopolamine-increased AChE activity in the brain: significantly (p<0.001) attenuated
Acetylcholinesterase; G4: 0.5 mg/kg i.v. qdx14
  brain Acetylcholine esterase Mean: 4.47 mU/ml
Acetylcholinesterase; G5: 0.25 mg/kg i.v. qdx14
  brain Acetylcholine esterase Mean: 6.27 mU/ml
Acetylcholinesterase; G6: 0.125 mg/kg i.v. qdx14
  brain Acetylcholine esterase Mean: 6.59 mU/ml
TNF alpha; G4: 0.5 mg/kg i.v. qdx14
  brain TNF-alpha Mean: 121.7 pg/mL and 121.73 pg/mL
TNF alpha; G5: 0.25 mg/kg i.v. qdx14
  brain TNF-alpha Mean: 67.65 pg/mL
TNF alpha; G6: 0.125 mg/kg i.v. qdx14
  brain TNF-alpha Mean: 79.53 pg/mL
[1]; [2]
  Histopathology (Mean score) Cerebral Cortex Cortex: 0
  Histopathology (Mean score) Cerebral Cortex Meninges: 0
  Histopathology (Mean score) Hippocampus CA1: 0
  Histopathology (Mean score) Hippocampus CA3: 0.67
  Histopathology (Mean score) Hippocampus DG: 0
[1]; [3]
  Histopathology (Mean score) Cerebral Cortex Cortex: 0
  Histopathology (Mean score) Cerebral Cortex Meninges: 0
  Histopathology (Mean score) Hippocampus CA1: 0
  Histopathology (Mean score) Hippocampus CA3: 0.6
  Histopathology (Mean score) Hippocampus DG: 0
[1]; [4]
  Histopathology (Mean score) Cerebral Cortex Cortex: 0
  Histopathology (Mean score) Cerebral Cortex Meninges: 0
  Histopathology (Mean score) Hippocampus CA1: 0
  Histopathology (Mean score) Hippocampus CA3: 1
  Histopathology (Mean score) Hippocampus DG: 0

— patent publication US20240398899A1 (priority 2021, published 2024)
